Results reported in US20220048991A1 (BIOND BIOLOGICS, published 2022).
Residue numbers refer to the chain shown, from its start. Names may count otherwise.

B1: humanized 15G8 VH1/Vk1 (antibody, IgG4, V domains shown)
VH: DVQLQGSGPGLVKPSETLSLTCSVTGYSITSGYYWNWIRQFPGKKLEWMGYISYDGSNNYNPSLKNRITISRDTSKNQFSLKLNSVTAADTATYYCAHGYSYYYAMDAWGQGTSVTVSS
VL: DIQMTQSTSSLSASVGDRVTITCRTSQDISNYLNWYQQKPGKAVKLLISYTSRLHSGVPSRFSGSGSGTDYTLTISSLQQEDFATYFCQQGNTLPTFGQGTKLEIK
notes: Humanized IgG4 (S228P, L235E), kappa; tested as supernatant of transiently transfected HEK EBNA cells
B2: humanized 15G8 VH2/Vk4 (antibody, IgG4, V domains shown)
VH: B1 VH with N84S, S114T
VL: B1 VL with T8P, V44P, Q80P
notes: as for B1
B3: humanized 15G8 VH3/Vk1 (antibody, IgG4, V domains shown)
VH: B1 VH with F41P, K45G, N84S, S114T
VL: B1 VL
notes: as for B1
B4: humanized 15G8 VH5/Vk2 (antibody, IgG4, V domains shown)
VH: B1 VH with D1Q, S23T, F41P, K45G, M49I, I68V, N84S, S114T
VL: B1 VL with T8P, Q80P
notes: as for B1
B5: humanized 15G8 VH1/Vk2 (antibody, IgG4, V domains shown)
VH: B1 VH
VL: B1 VL with T8P, Q80P
notes: as for B1
B6: humanized 15G8 VH4/Vk1 (antibody, IgG4, V domains shown)
VH: B1 VH with D1Q, F41P, K45G, I68V, N84S, S114T
VL: B1 VL
notes: as for B1
B7: humanized 15G8 VH4/Vk3 (antibody, IgG4, V domains shown)
VH: B1 VH with D1Q, F41P, K45G, I68V, N84S, S114T
VL: B1 VL with T8P, Q80P, F87Y
notes: as for B1
B8: humanized 15G8 VH1/Vk4 (antibody, IgG4, V domains shown)
VH: B1 VH
VL: B1 VL with T8P, V44P, Q80P
notes: as for B1
B9: humanized 15G8 VH5/Vk1 (antibody, IgG4, V domains shown)
VH: B1 VH with D1Q, S23T, F41P, K45G, M49I, I68V, N84S, S114T
VL: B1 VL
notes: as for B1
B10: humanized 15G8 VH3/Vk3 (antibody, IgG4, V domains shown)
VH: B1 VH with F41P, K45G, N84S, S114T
VL: B1 VL with T8P, Q80P, F87Y
notes: as for B1
B11: humanized 15G8 VH2/Vk2 (antibody, IgG4, V domains shown)
VH: B1 VH with N84S, S114T
VL: B1 VL with T8P, Q80P
notes: as for B1
B12: humanized 15G8 VH2/Vk1 (antibody, IgG4, V domains shown)
VH: B1 VH with N84S, S114T
VL: B1 VL
notes: as for B1

Each binder was assayed against T1, recombinant ILT2 (human) (human, UniProt Q8NHL6 24-461) (assay: SPR (Biacore T200); KD relative to Control (chimeric 15G8)).
T1 construct: also called recombinant ILT2 peptide; ILT2 protein
T1 sequence (Q8NHL6 24-461 limits assumed): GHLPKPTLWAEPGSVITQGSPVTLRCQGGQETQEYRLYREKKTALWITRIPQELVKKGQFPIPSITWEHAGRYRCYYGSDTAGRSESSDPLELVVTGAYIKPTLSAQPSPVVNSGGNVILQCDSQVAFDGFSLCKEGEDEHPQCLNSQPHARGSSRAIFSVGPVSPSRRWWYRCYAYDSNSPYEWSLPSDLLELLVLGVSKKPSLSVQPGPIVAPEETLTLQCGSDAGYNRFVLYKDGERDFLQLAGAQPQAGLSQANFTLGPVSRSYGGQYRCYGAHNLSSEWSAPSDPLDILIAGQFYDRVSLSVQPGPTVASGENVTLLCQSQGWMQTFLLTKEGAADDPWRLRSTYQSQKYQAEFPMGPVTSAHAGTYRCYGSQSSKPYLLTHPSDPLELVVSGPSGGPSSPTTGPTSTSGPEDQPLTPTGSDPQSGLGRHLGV
Method: (§1) During grafting of the 15G8 CDRs, five heavy chains and four kappa light chains were generated. These chains were designated VH1-5 and Vk1-4. By combining each heavy chain with each light chain twenty different resultant antibodies are possible. All twenty possible antibodies were transiently expressed in HEK EBNA cells, and the supernatants were tested for binding to recombinant ILT2 peptide using a Biacore T200. The chimeric 15G8 antibody was used as control.

| Relative KD | Binder |
| --- | --- |
| 0.7 | B1 |
| 1.13 | B2 |
| 0.68 | B3 |
| 0.6 | B4 |
| 0.7 | B5 |
| 0.69 | B6 |
| 0.75 | B7 |
| 1.48 | B8 |
| 0.68 | B9 |
| 0.72 | B10 |
| 0.7 | B11 |
| 0.76 | B12 |

These binders were tested against T1, recombinant ILT2 (human) (assay: SPR (Biacore T200), HEK EBNA supernatants on recombinant ILT2 peptide).
Method: as §1

| Kd [nM] | koff [s⁻¹] | kon [M⁻¹ s⁻¹] | Binder |
| --- | --- | --- | --- |
| 8.77 | 0.00931 | 1.06e+06 | B1 |
| 14.2 | 0.00789 | 554000 | B2 |
| 8.52 | 0.00681 | 799000 | B3 |
| 7.57 | 0.00954 | 1.26e+06 | B4 |
| 8.82 | 0.00678 | 769000 | B5 |
| 8.66 | 0.00792 | 915000 | B6 |
| 9.51 | 0.00843 | 886000 | B7 |
| 18.7 | 0.00854 | 457000 | B8 |
| 8.55 | 0.00994 | 1.16e+06 | B9 |
| 9.03 | 0.00611 | 677000 | B10 |
| 8.79 | 0.0066 | 752000 | B11 |
| 9.58 | 0.00728 | 760000 | B12 |
